Molecular target: the molecule itself
Assay: non-reducing SDS-PAGE with immunoblot; whole cell lysate, crude or isolated mitochondria of yeast (tgl2Δ, yme1Δ, other deletion strains) expressing HA-tagged Tgl2 variants; reducing agents omitted during SDS-PAGE; anti-HA immunodecoration; dimer-sized band

B1: N terminally hemagglutinin (HA) tagged Tgl2 (natural protein, S. cerevisiae, UniProt P54857 1-326, looked up)
chain: MKNDNKANDIIIDSVKVPDSYKPPKNPIVFCHGLSGFDKLILIPSVFHLTNLISNSIVHNMAENFMQDDEDKSDNKYTNLLEIEYWIGVKKFLQSKGCTVITTKVPGFGSIEERAMALDAQLQKEVKKIESKDKRHSLNLIAHSMGGLDCRYLICNIKNRNYDILSLTTISTPHRGSEMADYVVDLFENLNALRVSQKILPICFYQLTTAYMKYFNLVTPNSPKVSYFSYGCSFVPKWYNVFCTPWKIVYERSKGCPNDGLVTINSSKWGEYRGTLKDMDHLDVINWKNKLQDDWSKFFRTTTVGEKVDILNFYLKITDDLARKGF
notes: Tgl2, putative mitochondrial triacylglycerol lipase of the intermembrane space, S. cerevisiae; also called HA-Tgl2; native-like HA-Tgl2; source: S. cerevisiae (tgl2Δ, yme1Δ and other deletion strains), overexpressed from plasmid pYX142; in whole cell lysate, crude or isolated mitochondria; not shown: HA, N-terminal, kept
**Q.** With B1 as the protein, how does the “stoichiometry N” value read?
**A.** 2
